Experiment: soluble on expression in E. coli; label from the status in PepcDB or PDB records

Sequence | soluble on expression in E. coli
MDFVHCNKCFNRKPPDGFFISSCFHIFCTKCAKADLAVCLICKKNVRLVRLDGNISSGIKIYFADPIKMVADSLAKIQKKIDFQQSTRDHLVKYLTKEKEKKRQMEVYFRTKGQEFDSQRKKLAEATAWIQMAEKKLQASEEERVKAEREIEECQAKLKSMTNLMSADTLGMNSQTPFPFSLAESQETAPSLVESSANSTFNMVSPLVSSPASSPNSINYNSFFENGSRTRPESLNEEAMFNTMSSGQSANANTSESSAFSVAFNNIFTPSRNNMGDSSMINKTTANQTIMDKTSMSLENWRQNRANSFGVHDISKRDSSLPTGGGSAIRVHHFKQNSRITPIAQNRRSAAGFDRQQIQEMRRISSQPGYLAQRKPINGRSFIGPAD | not soluble
MSAVSNGNPSIVSPRGEHKGTLIFLHGLGDQGHGWADAFKTEAKHDNIKFICPHSSERPVTLNMGMRMPAWFDLFGLDPNAQEDEQGINRATQYVHQLIDAEVAAGIPASRIAVGGFSMGGALAIYAGLTYPQKLGGIVGLSSFFLQRTKFPGSFTANNATPIFLGHGTDDFLVPLQFGQMSEQYIKKFNPKVELHTYRGMQHSSCGEEMRDVKTFLSAHIAH | not soluble
MVIHQIKILQSVATSIVEGGRGVTGTPFPNQPDKPLKLYEFEGSPFSRRVREVLTLLNLDVEIYPCPKGGQKYRAIVKEKGGKLQFPFLIDENTGDQLYESQKIIHHLFKHYGKTGHTPEKYQHYPKIPVIGLIATLLNAARGVWVNKKIIHRAAPEQLLELWSFEASPYSRVVRDILTELEIPYVLHNVSKERWQDMGPAILRLKPGPYIPLAGGKRDKMLPMMQGKMQVPYLVDPNTGIHLFESAQIVAYLKKQYGEV | not soluble
MHGNPMNIPPVSIAAAKAALIEQYADPTLRRRASMLWGTRGVGKSSIVRQVAAHYRVPLIDLRLTTIEPVDIRGAIYADENLAKTVWFPPEFLPSRDQPEGVLFLDELTAADQRLQISAYSLILDRRVGNYHLPDGWQVVAAGNASFHGAISHDMGTALADRMFHFNVQTAIDAFLNHAITQEFAPEVMAYLKIRPDKLDDTQAQLAGDHLIGASPRGWEDISNVLKSGLSDHAKRLFVQGRIGAANAAEFFGVLREIQAGTDVLKLLAARPGPETAALLPKSLDALYGMLYGLLAASTDKQTMARALEIIEQLPDIRSAAPLPIREAQTLAMELLMQRGLENGLESAILDSPAYASYAGRRQLEASDALEHHHHHH | not soluble
MEESSAAKIQLLKEFKFEKILKDDTKSKIITLYGKIRNEVALLLLEKTAFDLNTIKLDQLATFLQDTKLVENNDVFHWFLSTNFQDCSTLPSVKSTLIWPASETHVYKYSSQKKPMVCETPLMYLKVTKPFIETQRGPQIQWVENILTHKAEAERIVVEDPDPLNGFIVIPDLKWDRQTMSALNLMAIVHATDIASIRDLKYKHIPLLENIRNKVLTEVPKQFSVDKNQLKMFVHYLPSYYHLHVHILHVDHETGDGSAVGRAILLDDVIDRLRNSPDGLENVNITFNIGEQHFLFQPLTNMNA | soluble
MAAAAAARKGGFWQRFAGKGVVQHCQSPTAPLPEACADMLWSNLGLLAAESIVPVLQNWARALKTDGLLFFTCFGRDTLAELKCRLKENGIESRSVMFPDMHDLGDMLAENGFYDPVTDTAKLVLDYKKAETFWADMDTLGIWRAMAWNDENAARSCVGTIFEREGGLGITLETVYGHAVKKLMLPQGENVVQFFPKRLEHHHHHH | soluble
MNRLPTCLLAATLFLGSASLYAEDPACARVRLADPGWSDIAVTNATAAFLLESLGYQVKIDTLSVPIIYGGLRDGQVDAFLGGWMPAHQDYHDKFVASGQVERLGRNLDGTRFTLAVPRYVWDAGVHRFEDLAAQGQRFNRKLYGIGSGAPANQSIQKMIDANQFGLGDWKLVESSEQAMLAELGRAEKRQRWLVFLGWTPHPMNIRHDLRYLEGGEQYFGDRGQVYTLARKGYAAQCPNPARLLANLRFDLDMENRLMSDALEGTATPASATRAWLKANPRVLEAWLQGVTSRDGGDALAAVRGQP | not soluble
MRGSHHHHHHGSAERMLATIMFTDIVGSTQHAAALGDDRWRDLLDNHDTIVCHEIQRFGGREVNTAGDGFVATFTSPSAAIACADDIVDAVAALGIEVRIGIHAGEVEVRDASHGTDVAGVAVHIGARVCALAGPSEVLVSSTVRDIVAGSRHRFAERGEQELKGVPGRWRLCVLMRDDATRTR | soluble
SSESKQDEDSGTSASLSKASKETSCKRQNREGSWDSSLVMKKPKQNQVSTVTDSEVALVSAYLEQRRVRRHSQFLRVNQIQQDSDTTECDSEESNSGASSWKESESDHHLSPANIKRRKSVSRQRDMENYEVRQRPCLHCKAMRTREWLTRHFPPSASVTTPMKGEIQEENLTPGTNTKFSKF | soluble
MSLAMRFMLLLMLVGMAHGALANPLRVCVGDVNVWPPFTYWQGSSAQEKAESLTGSATTLVLEALKKQEIEYQLHFMPWARVQQELAQATGRCDLTWDASYRAERAEYSYFSVPLYTIQLGYFTLPENSKDLNLATDSDVLCGVNGFNYQNFALPREPSLTLNSVQQALNMLQKERCDWFVSEIEPIYGGIMLGLYQLDRPIQHHFLGKTKEYHVQVRRSLPNAMPLLNGLNEYILQAQSSGHAQAVFDRFLSITQTEGHHHHHH | soluble
MPLRHWGMARGSKPVGDGAQPMAAMGGLKVLLHWAGPGGGEPWVTFSESSLTAEEVCIHIAHKVGITPPCFNLFALFDAQAQVWLPPNHILEIPRDASLMLYFRIRFYFRNWHGMNPREPAVYRCGPPGTEASSDQTAQGMQLLDPASFEYLFEQGKHEFVNDVASLWELSTEEEIHHFKNESLGMAFLHLCHLALRHGIPLEEVAKKTSFKDCIPRSFRRHIRQHSALTRLRLRNVFRRFLRDFQPGRLSQQMVMVKYLATLERLAPRFGTERVPVCHLRLLAQAEGEPCYIRDSGVAPTDPGPESAAGPPTHEVLVTGTGGIQWWPVEEEVNKEEGSSGSSGRNPQASLFGKKAKAHKAVGQPADRPREPLWAYFCDFRDITHVVLKEHCVSIHRQDNKCLELSLPSRAAALSFVSLVDGYFRLTADSSHYLCHEVAPPRLVMSIRDGIHGPLLEPFVQAKLRPEDGLYLIHWSTSHPYRLILTVAQRSQAPDGMQSLRLRKFPIEQQDGAFVLEGWGRSFPSVRELGAALQGCLLRAGDDCFSLRRCCLPQPGETSNLIIMRGARASPRTLNLSQLSFHRVDQKEITQLSHLGQGTRTNVYEGRLRVEGSGDPEEGKMDDEDPLVPGRDRGQELRVVLKVLDPSHHDIALAFYETASLMSQVSHTHLAFVHGVCVRGPENIMVTEYVEHGPLDVWLRRERGHVPMAWKMVVAQQLASALSYLENKNLVHGNVCGRNILLARLGLAEGTSPFIKLSDPGVGLGALSREERVERIPWLAPECLPGGANSLSTAMDKWGFGATLLEICFDGEAPLQSRSPSEKEHFYQRQHRLPEPSCPQLATLTSQCLTYEPTQRPSFRTILRDLTRLQPHNLADVLTVNPDSPASDPTVFHKRYLKKIRDLGEGHFGKVSLYCYDPTNDGTGEMVAVKALKADCGPQHRSGWKQEIDILRTLYHEHIIKYKGCCEDQGEKSLQLVMEYVPLGSLRDYLPRHSIGLAQLLLFAQQICEGMAYLHSQHYIHRDLAARNVLLDNDRLVKIGDFGLAKAVPEGHEYYRVREDGDSPVFWYAPECLKEYKFYYASDVWSFGVTLYELLTHCDSSQSPPTKFLELIGIAQGQMTVLRLTELLERGERLPRPDKCPCEVYHLMKNCWETEASFRPTFENLIPILKTVHEKYQGQAPSVFSVC | soluble
MHHHHHHMTSVMSHEFQLATAETWPNPWPMYRALRDHDPVHHVVPPQRPEYDYYVLSRHADVWSAARDHQTFSSAQGLTVNYGELEMIGLHDTPPMVMQDPPVHTEFRKLVSRGFTPRQVETVEPTVRKFVVERLEKLRANGGGDIVTELFKPLPSMVVAHYLGVPEEDWTQFDGWTQAIVAANAVDGATTGALDAVGSMMAYFTGLIERRRTEPADDAISHLVAAGVGADGDTAGTLSILAFTFTMVTGGNDTVTGMLGGSMPLLHRRPDQRRLLLDDPEGIPDAVEELLRLTSPVQGLARTTTRDVTIGDTTIPAGRRVLLLYGSANRDERQYGPDAAELDVTRCPRNILTFSHGAHHCLGAAAARMQCRVALTELLARCPDFEVAESRIVWSGGSYVRRPLSVPFRVTSSR | soluble
MDLSRINTWKSKQLKSFLSSKDAFKADINGHSVLYYAIADNNVRLVCTLLNAGALKNLLDNEFPLHQAATLEDTKIVKILLFSGMDDSQFDDKGNTALYYAVDSGNMQTVKLFVKKNWRLMFYGKTGWKTSFYHAVMLNDVSIVSYFLSEIPSPFDLAILLSCIHTTIKNGHVDMMILLLDYMTSTNTNSLLFIPDIKLAIDNKDIEMLQALFKYDINIYSVNLENVLLDDAEIAKMIIEKHVEYKSDSYTKDLDDVKNNKLDEIISKNEELRLMYVNYVRKNY | not soluble
MRIVEEMVGKEVLDSSAKVIGKVKDVEVDIESQAIESLVLGKGGISEGLGLSKGETIVPYEMVKKIGDKILLKGPEE | not soluble
MAGISIGVGSTDYTDLVNKMVNLEGAAKTNQLATLEKTTTTRLTALGQFKSAISAFQTALTALNSNAVFMARTAKSSNEDILKASATQSAVAGTYQIQVNSLATSSKIALQAIADPANAKFNSGTLNISVGDTKLPAITVDSSNNTLAGMRDAINQAGKEAGVSATIITDNSGSRLVLSSTKTGDGKDIKVEVSDDGSGGNTSLSQLAFDPATAPKLSDGAAAGYVTKAANGEITVDGLKRSIASNSVSDVIDGVSFDVKAVTEAGKPITLTVSRDDAGVKDNVKKFVEAYNTLTKFINEQTVVTKVGEDKNPVTGALLGDASVRALVNTMRSELIASNENGSVRNLAALGITTTKDGTLEIDEKKLDKAISADFEGVASYFTGDTGLAKRLGDKMKPYTDAQGILDQRTTTLQKTLSNVDTQKADLAKRLAALQEKLTTQFNLLSAMQDEMTKRQKSITDNLASLPYGSGKKT | not soluble
MRKRLSAPELRLSLTKGPGNDGASPTQSAPSSPDGSSDLEIDELETPSDSEQLDSGHEFEWEDELPRAEGLGTSETAERLGRGCMWDVTGEDGHHWRVFRMGPREQRVDMTVIEPYKKVLSHGGYHGDGLNAVILFASCYLPRSSIPNYTYVMEHLFRYMVGTLELLVAENYLLVHLSGGTSRAQVPPLSWIRQCYRTLDRRLRKNLRALVVVHATWYVKAFLALLRPFISSKFTRKIRFLDSLGELAQLISLDQVHIPEAVRQLDRDLHGSGGT | not soluble
MSLDSNTVAVNPDSLILKRFLKTNQLNGIMIVTGPDGKAQVFSNQSKVDGSPVSIKDYFPLASLQKLITGVAIQQLIDKGKLSLNTPLSKYYPQIENSENITIQNLLTHTSGLADRKEVPQQVLTTQEQQLDFSLTNYRVTYRKKWKYANINYALLAGIISQISGQNYATYVRQHFLTAGKGWHFKKYIQIKDKSKLAALSVMDQSTTWDKLSKEVTSTFGAGDYASRPVDYWKFMMAFINDQFVPVSEYQRSMKMTSKSYYGGLYISQKMLHANGGGFDTYSCFAYSNPKTKQVMVLFITNGKYKRVKSLAAKAFKLYADSYALRKNETSEGHHHHHH | soluble
MSRIVAIDYGRKRTGIAVSDTLQLIANGLTTVPTHELLNFIGGYVAKEPVERIIIGLPKQMNNEASENMKNIEPFVRSLKKRFPELPVEYVDERFTSVLAHRTMLEAGLKKKDRQNKALVDEISATIILQTYLESKRF | not soluble
MAHHHHHHMGSTGRKAVDEINHWIAYIDCALSHPHPLPKGKHVFRSDLSTVPEVRDIYDCLYKLYAEESASASFREPVNALELGVFNYYEVVTEPMSLRTVLDRIAEGGHYSQASQVLADVEKIWSNCEKYNGADSALVKEAKKCQGILTRLRERLAEEQPAPNAELDKIISAFESADESVLGELEAYFRREDPSLIISNGDVDLTALRVKHLKAMKAILERAMNGGGGRG | not soluble

From the DeepSol protein solubility set
